Experimental data reported in publication PMC7225057 (Journal of molecular biology, 2020).

Target: FITC-sCT(22–32) (salmon, FITC label)
Experiment: fluorescence polarisation

Kd: 280 nM | pKD: 6.56
B1: RAMP1-CTR.34–141 WT (tethered RAMP1-CTR ECD fusion, AMY1 receptor ECD) (receptor)
chain: TTACQEANYGALLRELCLTQFQVDMEAVGETLWCDWGRTIRSYRELADCTWHMAEKLGCFWPNAEVDRFFLAVHGRYFRSCPISGRAVIEPKPFLYVVGRKKMMDAQYKCYDRMQQLPAYQGEGPYCNRTWDGWLCWDDTPAGVLSYQFCPDYFPDFDPSEKVTKYCDEKGVWFKHPENNRTWSNYTMCNAFTPEK
modifications: N-glycosylated (HEK293S GnTI−, enzyme treatment: none)
